IntAct's records for PubMed 31515488

B1: Cyclic AMP-dependent transcription factor ATF-4 (Homo sapiens), P18848 (parent)
chain: MTEMSFLSSEVLVGDLMSPFDQSGLGAEESLGLLDDYLEVAKHFKPHGFSSDKAKAGSSEWLAVDGLVSPSNNSKEDAFSGTDWMLEKMDLKEFDLDALLGIDDLETMPDDLLTTLDDTCDLFAPLVQETNKQPPQTVNPIGHLPESLTKPDQVAPFTFLQPLPLSPGVLSSTPDHSFSLELGSEVDITEGDRKPDYTAYVAMIPQCIKEEDTPSDNDSGICMSPESYLGSPQHSPSTRGSPNRSLPSPGVLCGSARPKPYDPPGEKMVAAKVKGEKLDKKLKKMEQNKTAATRYRQKKRAEQEALTGECKELEKKNEALKERADSLAKEIQYLKDLIEEVRKARGKKRVP
partner: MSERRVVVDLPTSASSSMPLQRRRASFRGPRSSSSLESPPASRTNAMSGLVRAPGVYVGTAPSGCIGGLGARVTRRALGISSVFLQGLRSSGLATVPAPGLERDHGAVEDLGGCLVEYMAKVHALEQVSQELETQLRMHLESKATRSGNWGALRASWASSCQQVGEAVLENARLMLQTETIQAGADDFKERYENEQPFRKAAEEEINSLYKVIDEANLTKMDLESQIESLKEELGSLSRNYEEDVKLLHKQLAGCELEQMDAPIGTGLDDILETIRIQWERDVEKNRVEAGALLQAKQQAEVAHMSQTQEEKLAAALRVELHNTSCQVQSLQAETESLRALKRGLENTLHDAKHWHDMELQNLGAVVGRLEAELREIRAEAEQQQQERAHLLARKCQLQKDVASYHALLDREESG
B2: Oxidative stress-induced growth inhibitor 1 (Homo sapiens), Q9UJX0 (parent)
chain: MSSSRKDHLGASSSEPLPVIIVGNGPSGICLSYLLSGYTPYTKPDAIHPHPLLQRKLTEAPGVSILDQDLDYLSEGLEGRSQSPVALLFDALLRPDTDFGGNMKSVLTWKHRKEHAIPHVVLGRNLPGGAWHSIEGSMVILSQGQWMGLPDLEVKDWMQKKRRGLRNSRATAGDIAHYYRDYVVKKGLGHNFVSGAVVTAVEWGTPDPSSCGAQDSSPLFQVSGFLTRNQAQQPFSLWARNVVLATGTFDSPARLGIPGEALPFIHHELSALEAATRVGAVTPASDPVLIIGAGLSAADAVLYARHYNIPVIHAFRRAVDDPGLVFNQLPKMLYPEYHKVHQMMREQSILSPSPYEGYRSLPRHQLLCFKEDCQAVFQDLEGVEKVFGVSLVLVLIGSHPDLSFLPGAGADFAVDPDQPLSAKRNPIDVDPFTYQSTRQEGLYAMGPLAGDNFVRFVQGGALAVASSLLRKETRKPP
partner: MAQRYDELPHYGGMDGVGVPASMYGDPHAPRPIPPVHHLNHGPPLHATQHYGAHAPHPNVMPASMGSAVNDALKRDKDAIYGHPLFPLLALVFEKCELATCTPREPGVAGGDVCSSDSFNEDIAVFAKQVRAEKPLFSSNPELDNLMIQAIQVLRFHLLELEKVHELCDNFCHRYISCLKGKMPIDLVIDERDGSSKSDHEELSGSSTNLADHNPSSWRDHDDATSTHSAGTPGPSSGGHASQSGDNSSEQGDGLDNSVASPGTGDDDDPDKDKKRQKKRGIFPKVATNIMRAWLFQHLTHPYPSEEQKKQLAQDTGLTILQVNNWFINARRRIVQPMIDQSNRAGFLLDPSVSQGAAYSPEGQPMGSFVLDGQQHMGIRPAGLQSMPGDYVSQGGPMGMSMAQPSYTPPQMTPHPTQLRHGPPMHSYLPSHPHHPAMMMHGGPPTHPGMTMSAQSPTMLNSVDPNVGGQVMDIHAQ
B3: Tuftelin-interacting protein 11 (Homo sapiens), Q9UBB9 (parent)
chain: MSLSHLYRDGEGRIDDDDDERENFEITDWDLQNEFNPNRQRHWQTKEEATYGVWAERDSDDERPSFGGKRARDYSAPVNFISAGLKKGAAEEAELEDSDDEEKPVKQDDFPKDFGPRKLKTGGNFKPSQKGFAGGTKSFMDFGSWERHTKGIGQKLLQKMGYVPGRGLGKNAQGIINPIEAKQRKGKGAVGAYGSERTTQSMQDFPVVDSEEEAEEEFQKELSQWRKDPSGSKKKPKYSYKTVEELKAKGRISKKLTAPQKELSQVKVIDMTGREQKVYYSYSQISHKHNVPDDGLPLQSQQLPQSGKEAKAPGFALPELEHNLQLLIDLTEQEIIQNDRQLQYERDMVVNLFHELEKMTEVLDHEERVISNLSKVLEMVEECERRMQPDCSNPLTLDECARIFETLQDKYYEEYRMSDRVDLAVAIVYPLMKEYFKEWDPLKDCTYGTEIISKWKSLLENDQLLSHGGQDLSADAFHRLIWEVWMPFVRNIVTQWQPRNCDPMVDFLDSWVHIIPVWILDNILDQLIFPKLQKEVENWNPLTDTVPIHSWIHPWLPLMQARLEPLYSPIRSKLSSALQKWHPSDSSAKLILQPWKDVFTPGSWEAFMVKNIVPKLGMCLGELVINPHQQHMDAFYWVIDWEGMISVSSLVGLLEKHFFPKWLQVLCSWLSNSPNYEEITKWYLGWKSMFSDQVLAHPSVKDKFNEALDIMNRAVSSNVGAYMQPGARENIAYLTHTERRKDFQYEAMQERREAENMAQRGIGVAASSVPMNFKDLIETKAEEHNIVFMPVIGKRHEGKQLYTFGRIVIYIDRGVVFVQGEKTWVPTSLQSLIDMAK
partner: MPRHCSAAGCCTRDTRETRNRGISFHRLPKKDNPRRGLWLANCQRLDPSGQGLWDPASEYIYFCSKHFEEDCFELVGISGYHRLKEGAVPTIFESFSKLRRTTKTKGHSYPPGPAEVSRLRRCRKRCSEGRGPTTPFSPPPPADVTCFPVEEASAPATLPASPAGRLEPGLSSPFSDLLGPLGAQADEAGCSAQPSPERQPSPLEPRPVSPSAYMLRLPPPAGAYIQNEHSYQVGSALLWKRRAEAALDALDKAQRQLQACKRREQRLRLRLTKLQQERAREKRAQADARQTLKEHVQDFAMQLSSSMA

Variants of: B1
Conditions: with bfsp2_human BFSP2, Q13515

effect of a mutation on the interaction | Variant
disrupting interaction strength | MTEMSFLSSEVLVGDLMSPFDQSGLGAEESLGLLDDYLEVAKHFKPHGFSSDKAKAGSSEWLAVDGLVSPSNNSKEDAFSGTDWMLEKMDLKEFDLDALLGIDDLETMPDDLLTTLDDTCDLFAPLVQETNKQPPQTVNPIGHLPESLTKPDQVAPFTFLQPLPLSPGVLSSTPDHSFSLELGSEVDITEGDRKPDYTAYVAMIPQCIKEEDTPSDNDSGICMSPESYLGSPQHSPSTRGSPNRSLPSPGVLCGSARPKPYDPPGEKMVAAKVKGEKLDKKLKKMEQNKTAATRYRQKKRAEQEALTGECKELEKKNEALKDRADSLAKEIQYLKDLIEEVRKARGKKRVP [E322D]

Variants of: B2
Conditions: with meis2_human MEIS2, O14770

effect of a mutation on the interaction | Variant
with no effect | MSSSRKDHLGASSSEPLPVIIVGNGPSGICLSYLLSGYTPYTKPDAIHPHPLLQRKLTEAPGVSILDQDLDYLSEGLEGRSQSPVALLFDALLRPDTDFGGNMKSVLTWKHRKEHAIPHVVLGRNLPGGAWHSIEGSMVILSQGQWMGLPDLEVKDWMQKKRRGLRNSRATAGDIAHYYRDYVVKKGLGHNFVSGAVVTAVEWGTPDPSSCGAQDSSPLFQVSGFLTRNQAQQPFSLWARNVVLATGTFDSPARLGIPGEALPFIHHELSALEAATRVGAVTPASDPVLIIGAGLSAADAVLYARHYNIPVIHAFRRAVNDPGLVFNQLPKMLYPEYHKVHQMMREQSILSPSPYEGYRSLPRHQLLCFKEDCQAVFQDLEGVEKVFGVSLVLVLIGSHPDLSFLPGAGADFAVDPDQPLSAKRNPIDVDPFTYQSTRQEGLYAMGPLAGDNFVRFVQGGALAVASSLLRKETRKPP [D320N]
with no effect | MSSSRKDHLGASSSEPLPVIIVGNGPSGICLSYLLSGYTPYTKPDAIHPHPLLQRKLTEAPGVSILDQDLDYLSEGLEGRSQSPVALLFDALLRPDTDFGGNMKSVLTWKHRKEHAIPHVVLGRNLPGGAWHSIEGSMVILSQGQWMGLPDLEVKDWMQKKRRGLRNSRATAGDIAHYYRDYVVKKGLGHNFVSGAVVTAVEWGTPDPSSCGAQDSSPLFQVSGFLTRNQAQQPFLLWARNVVLATGTFDSPARLGIPGEALPFIHHELSALEAATRVGAVTPASDPVLIIGAGLSAADAVLYARHYNIPVIHAFRRAVDDPGLVFNQLPKMLYPEYHKVHQMMREQSILSPSPYEGYRSLPRHQLLCFKEDCQAVFQDLEGVEKVFGVSLVLVLIGSHPDLSFLPGAGADFAVDPDQPLSAKRNPIDVDPFTYQSTRQEGLYAMGPLAGDNFVRFVQGGALAVASSLLRKETRKPP [S236L]

Variants of: B3
Conditions: with thap7_human THAP7, Q9BT49

effect of a mutation on the interaction | Variant
with no effect | S688L
with no effect | R8Q
